Test results taken from patent publication US20120093835A1 (DECIMMUNE THERAPEUTICS, published 2012).
Where no end group is shown, it is not given here.

B1: IgG^12A6 (12A6 IgG), antibody produced by murine B-cell hybridoma 12A6 (ATCC PTA-9392) (antibody, V domains shown)
VH: QVTLKESGPGILQPSQTLSLTCSFSGFSLSTFGIGVGWIRQPSGKGLEWLAHIWWNDNNYYNTSLKSRLTISKDTSNNQVFLKIASVDTADTATYYCARVGGINFSMDYWGQGTSVTVSS
VL: DIVMTQSASSLAVSAGEKVTMNCKSSQSVLYSSNQKNYLAWYQQKPGQSPKLLIYWASTRESGVPDRFTGSGSGTDFTLTISSVQAEDLAVYYCHQYLSSWTFGGGTKLEIKR
notes: also called 12A6 hybridoma antibody; anti-N2 antibody (12A6)
B2: IgG^21G6 (21G6 IgG), antibody produced by murine B-cell hybridoma 21G6 (ATCC PTA-9393) (antibody, V domains shown)
VH: QVQLQESGAELVKPGASVKLSCKASGYTFTSYYMYWVKQRPGQGLEWIGGINPSNGGTNFNEKFKSKATLTVDKSSSTAYMQLSSLTSEDSAVYYCTRWGYDREWFAYWGQGTLVTVSA
VL: DIVMTQAAPSVPVTPGESVSISCRSSKSLLHSNGNTYLYWFLQRPGQSPQVLIYRMSNLASGVPDRFSGSGSGTAFTLRISRVEAEDVGVYYCMQHLEYPFTFGSGTKLEIKR
notes: also called anti-N2 mAb

Biological target: T1, N2 peptide (Ac-LMKNMDPLNDNV), N2 self-peptide of Mouse NMHC-IIB (592-603) (mouse (the filing says the region is …, not fully specified; printed as Ac-LMKNMDPLNDNV)
T1 peptide: Ac-LMKNMDPLNDNV
Assay: not described (in vitro and in vivo binding of hybridoma antibody to N2 peptide)

| Binder | binding result |
| --- | --- |
| B1 | binds |
| B2 | binds |
